Source: US20210388087A1 (Chugai, published 2021)
Where a chain is given by its changes, count along the chain named. Where no end group is shown, it is not given here.

B1: DADU01_3#002 (antibody, V domains shown)
VH: QVQLVESGGGLVQPGRSLRLSCAASGFTFSNAWMHWVRQAPGKGLEWVAQIKDKQNLYNAYYAESVKGRFTISRDDSKNSIYLQMNSLKTEDTAVYYCHYVHYASASTVLPAFGVDAWGQGTTVTVSS
VL: DIVMTQSPLSLPVTPGEPASISCRSSQSLVHSNRNTYLHWYQQKPGQAPRLLIYKVSNRFSGVPDRFSGSGSGTDFTLKISRVEAEDVGVYYCGQGTQVPYTFGQGTKLEIK
notes: Human IgG1; light chain GLS3000 (kappa); also called dBBDu124
B2: DADU01_3#018 (antibody, V domains shown)
VH: B1 VH with K54R, Q55A, L57S, E64P, A104S, S105A, V109L, A112S
VL: B1 VL
notes: Human IgG1; light chain GLS3000 (kappa); also called dBBDu123
B3: DXDU01_3#019 (antibody, V domains shown)
VH: QVQLVESGGGLVQPGRSLRLSCAASGFTFSIAWMHWVRQAPGKGLEWVAQIKDKVNGYTAYYAESVKGRFTISRDDSKNSIYLQMNSLKTEDTAVYYCRYVHYAAYYDVLGYGGVDAWGQGTTVTVSS
VL: B1 VL
notes: Human IgG1; light chain GLS3000 (kappa); also called dBBDu125
B4: DXDU01_3#051 (antibody, V domains shown)
VH: B1 VH with K54R, Q55G, N56Q, L57Q, E64P, T108S, A112G, F113Y
VL: B1 VL
notes: Human IgG1; light chain GLS3000 (kappa); also called dBBDu127
B5: DXDU01_3#094 (antibody, V domains shown)
VH: B1 VH with Q55G, L57A, N59A, E64P, S107A, T108G, V109G, A112G
VL: B1 VL
notes: Human IgG1; light chain GLS3000 (kappa); also called dBBDu121
B6: DADU01_3#001 (antibody, V domains shown)
VH: B3 VH with K54R, G57A, T59E, E64P, A105S, V109L
VL: B1 VL
notes: Human IgG1; light chain GLS3000 (kappa); also called dBBDu126; dBBDu_126
B7: anti-human CD137 antibody described in WO2005/035584A1 (abbreviated as B) (antibody, V domains shown)
VH: QVQLQQWGAGLLKPSETLSLTCAVYGGSFSGYYWSWIRQSPEKGLEWIGEINHGGYVTYNPSLESRVTISVDTSKNQFSLKLSSVTAADTAVYYCARDYGPGNYDWYFDLWGRGTLVTVSS
VL: EIVLTQSPATLSLSPGERATLSCRASQSVSSYLAWYQQKPGQAPRLLIYDASNRATGIPARFSGSGSGTDFTLTISSLEPEDFAVYYCQQRSNWPPALTFGGGTKVEIK
notes: Control antibody; also called control anti-CD137 antibody
B8: dBBDu186/L106 (antibody, V domains shown)
VH: B1 VH with K54R, Q55S, L57Q, N59A, A60T, E64P, S105Q
VL: DIVMTQSPLSLPVTPGEPASISCSTSEELLHINRFIFLHWYQQKPGQAPRLLIYKVANRFMGVPDRFSGSGSGTDFTLKISRVEAEDVGVYYCAQGSQVPFTFGQGTKLEIK
notes: IgG format; constant regions not specified
B9: dBBDu186/L108 (antibody, V domains shown)
VH: B1 VH with K54R, Q55S, L57Q, N59A, A60T, E64P, S105Q
VL: B8 VL with S24R, I36T, A57S, Q98A
notes: as for B8
B10: dBBDu189/L119 (antibody, V domains shown)
VH: QVQLVESGGGLVQPGRSLRLSCAASGFTFSNAWMHWVRQAPGKGLEWIAQIKDRSNQYATYYAPSVKGRFTISRDDSKNSIYLQMNSLKTEDTAVYYCHYVHYAQASSLLPSFGVDAWGQGTTVTVSS
VL: B8 VL with S24T, T25A, E27Q, L30V, A57S, M61I
notes: as for B8
B11: dBBDu189/L126 (antibody, V domains shown)
VH: B10 VH
VL: B8 VL with S24R, F35Y, A57Q, M61S, Q98A
notes: as for B8
B12: dBBDu193/L127 (antibody, V domains shown)
VH: B10 VH with I48V, A104S, Q105A, S108T
VL: B8 VL with S24R, T25A, F35H, A57Y, M61T, S97T, Q98S
notes: IgG format; constant regions not specified; also called dBBDu_193 dBBDu.L127
B13: dBBDu193/L132 (antibody, V domains shown)
VH: B10 VH with I48V, A104S, Q105A, S108T
VL: B8 VL with S24Q, L30V, A57S, M61S, S97T, Q98S
notes: IgG format; constant regions not specified; also called dBBDu_193 dBBDu.L132

Each binder was assayed against T1, human CD137-Fc (human, biotin-labeled) (assay: bead ELISA, IgG on biotinylated antigen, luminescence;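 further: biotinylated antigen captured on streptavidin magnetic beads, then incubated with purified IgG at 50 ng/µL for 1 h at room temperature before detection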).
T1 construct: if 90 already holds the Fc, drop the second piece; also called biotin-labeled human CD137 fused to human IgG1 Fc fragment; biotin-human CD137-Fc; not shown: human IgG1 Fc fragment

| RLU [RLU] | S/N ratio (human CD137-Fc/Fc) | Binder |
| --- | --- | --- |
| 39100 | 20.3 | B1 |
| 32800 | 17.3 | B2 |
| 77800 | 23.8 | B3 |
| 38100 | 13.1 | B4 |
| 24200 | 10.2 | B5 |
| 95300 | 54.1 | B6 |

Target: T2, cyno CD137-Fc (cynomolgus monkey; human, limits assumed, biotin-labeled)
T2 construct: whole entry 92 named; also called biotin-labeled cynomolgus monkey CD137 fused to human IgG1 Fc fragment; not shown: human IgG1 Fc fragment
T2 chain: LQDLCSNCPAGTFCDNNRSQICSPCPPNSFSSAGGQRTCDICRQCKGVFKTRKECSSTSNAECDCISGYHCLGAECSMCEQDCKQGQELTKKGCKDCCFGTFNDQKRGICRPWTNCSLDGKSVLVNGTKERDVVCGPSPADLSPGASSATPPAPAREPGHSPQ
Experiment: as above

| RLU [RLU] | S/N ratio (cyno CD137-Fc/Fc) | Binder |
| --- | --- | --- |
| 10800 | 5.6 | B1 |
| 6200 | 3.27 | B2 |
| 5090 | 1.56 | B3 |
| 10900 | 3.73 | B4 |
| 19100 | 8.09 | B5 |
| 1210 | 0.687 | B6 |

The binders below were run against T1, human CD137-Fc (assay: bead ELISA on biotin-human CD137-Fc with 125 pmol/well free CD3e peptide as competitor;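 further: Streptavidin-coated magnetic beads in blocking buffer as the capture surface, well signal read as fluorescence 2 min after adding APS-5 substrate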).

| ELISA signal | Binder |
| --- | --- |
| 2120 | B1 |
| 1840 | B2 |
| 2060 | B3 |
| 2200 | B4 |
| 1830 | B5 |
| 2610 | B6 |
| 98100 | B7 |

Each binder was assayed against human CD137 (human, UniProt Q07011 24-186) (assay: SPR Biacore T200, IgG captured on protein A, 25 C;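 further: antigens diluted in ACES running buffer at pH 7.4 were flowed over antibodies held on a CM3 chip bearing amine-coupled protein A, with buffer alone serving as blank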).

| Kd [µM] | koff [s⁻¹] | kon [M⁻¹ s⁻¹] | Binder |
| --- | --- | --- | --- |
| 3.44 | 0.000447 | 130 | B8 |
| 2.41 | 0.00081 | 335 | B9 |
| 2.71 | 0.000402 | 148 | B10 |
| 0.513 | 0.000688 | 1340 | B11 |
| 3.3 | 0.00145 | 440 | B12 |
| 4.48 | 0.00211 | 471 | B13 |

Target: T3, cyno CD137 (cynomolgus monkey, UniProt Q07011 24-186 (human entry), limits assumed)
T3 construct: also called cynomolgus monkey CD137
T3 chain: T2 chain
Experiment: SPR Biacore T200, IgG captured on protein A, 25 C;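 further: antigens diluted in ACES running buffer at pH 7.4 were flowed over antibodies held on a CM3 chip bearing amine-coupled protein A, with buffer alone serving as blank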

| Kd [µM] | koff [s⁻¹] | kon [M⁻¹ s⁻¹] | Binder |
| --- | --- | --- | --- |
| 61.3 | 0.00126 | – | B8 |
| 16.1 | 0.00361 | 225 | B9 |
| 35.7 | 0.00122 | – | B10 |
| 3.06 | 0.00247 | 807 | B11 |
| 28.1 | 0.00316 | 112 | B12 |
| 757 | 0.0061 | – | B13 |

These binders were tested against human CD3 ed (human, UniProt P07766 23-126; P04234 22-105, limits assumed) (assay: SPR Biacore T200, IgG captured on protein A, 25 C;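 further: antigens diluted in ACES running buffer at pH 7.4 were flowed over antibodies held on a CM3 chip bearing amine-coupled protein A, with buffer alone serving as blank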).

| Kd [µM] | koff [s⁻¹] | kon [M⁻¹ s⁻¹] | Binder |
| --- | --- | --- | --- |
| 3.09 | 0.0318 | 10300 | B8 |
| 3.01 | 0.0408 | 13600 | B9 |
| 2.06 | 0.0258 | 12500 | B10 |
| 2.57 | 0.0281 | 10900 | B11 |
| 1.51 | 0.0191 | 12600 | B12 |
| 2.03 | 0.0201 | 9890 | B13 |

The binders below were run against T1, human CD137-Fc (assay: bead ELISA on biotin-human CD137-Fc, 125 vs 0 pmol free CD3e peptide;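 further: target captured on streptavidin-coated magnetic beads, signal read as fluorescence 2 min after adding APS-5 substrate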).

| Signal decrease [%] | Binder |
| --- | --- |
| 68 | B1 |
| 33 | B2 |
| 96.7 | B3 |
| 32 | B4 |
| 49.4 | B5 |
| 97.8 | B6 |
| 1.26 | B7 |

What follows are binders tested against T1, human CD137-Fc (assay: bead ELISA on biotin-human CD137-Fc, 0 pmol free CD3e peptide).

| ELISA signal | Binder |
| --- | --- |
| 6620 | B1 |
| 2750 | B2 |
| 61400 | B3 |
| 3230 | B4 |
| 3610 | B5 |
| 116000 | B6 |
| 99400 | B7 |

What follows are binders tested against T4, biotin-labeled human CD137 fused to human IgG1 Fc fragment (human, biotin-labeled) (assay: competitive ELISA on biotin-human CD137-Fc; competitor free CD3e 62.5 pmol).
T4 construct: also called human CD137-Fc; biotin-human CD137-Fc; not shown: human IgG1 Fc fragment

| ELISA signal | Binder |
| --- | --- |
| 3090 | B8 |
| 50800 | B9 |
| 20400 | B10 |
| 9750 | B11 |
| 2470 | B12 |
| 10400 | B13 |

These binders were tested against T1, human CD137-Fc (assay: bead ELISA on biotin-human CD137-Fc with 62.5 pmol free CD3e peptide as competitor).

| ELISA signal | Binder |
| --- | --- |
| 9970 | B1 |
| 9020 | B2 |
| 12800 | B3 |
| 10800 | B4 |
| 9660 | B5 |
| 15100 | B6 |
| 183000 | B7 |

What follows are binders tested against T1, human CD137-Fc (assay: bead ELISA on biotin-human CD137-Fc with 62.5 pmol free human Fc (control competitor)).

| ELISA signal | Binder |
| --- | --- |
| 155000 | B1 |
| 117000 | B2 |
| 172000 | B3 |
| 128000 | B4 |
| 108000 | B5 |
| 81000 | B6 |
| 184000 | B7 |

Each binder was assayed against T1, human CD137-Fc (assay: bead ELISA on biotin-human CD137-Fc, free CD3e peptide vs free Fc).

| Signal decrease [%] | Binder |
| --- | --- |
| 93.6 | B1 |
| 92.3 | B2 |
| 92.5 | B3 |
| 91.6 | B4 |
| 91.1 | B5 |
| 81.3 | B6 |
| 0.94 | B7 |

These binders were tested against T4, biotin-labeled human CD137 fused to … (assay: competitive ELISA on biotin-human CD137-Fc; free CD3e vs free Fc).

| Signal decrease [%] | Binder |
| --- | --- |
| 68.7 | B8 |
| 39.2 | B9 |
| 76.9 | B10 |
| 87 | B11 |
| 59.4 | B12 |
| 91 | B13 |

Target: T5, Biotin-labeled CD3 epsilon peptide antigen (human, also: biotin-labeled, site not given here)
T5 construct: also called CD3 peptide
T5 peptide: QDGNEEMGGITQTPY
Experiment: bead ELISA, IgG on biotinylated CD3 epsilon peptide, luminescence

| RLU [RLU] | S/N ratio (CD3 peptide/non coating) | Binder |
| --- | --- | --- |
| 174000 | 156 | B1 |
| 182000 | 149 | B2 |
| 191000 | 161 | B3 |
| 169000 | 145 | B4 |
| 165000 | 141 | B5 |
| 198000 | 146 | B6 |

These binders were tested against T4, biotin-labeled human CD137 fused to … (assay: competitive ELISA on biotin-human CD137-Fc; free Fc 62.5 pmol (control)).

| ELISA signal | Binder |
| --- | --- |
| 9860 | B8 |
| 83600 | B9 |
| 88100 | B10 |
| 75100 | B11 |
| 6080 | B12 |
| 116000 | B13 |
